Experimental data as given in patent US20210220471A1, “METHODS OF USING PHARMACOLOGIC INHIBITORS OF TYPE 2 CYTOKINE SIGNALING TO TREAT OR PREVENT PANCREATIC CANCER” (Memorial Sloan Kettering Cancer Center, priority 2018, published 2021).
“Also recorded” adds a separate entry of the source.

What was measured:
[1] = tested on: mutant Kras pancreatic organoids; assay: Growth of mutant Kras pancreatic organoids with recombinant IL-4 / IL-13 (Cell Titer Glo); type: cell-based, mouse; details: pre-malignant mutant Kras G12D; for proliferation (Cell Titer Glo): 6-day growth; for proliferation (Cell Titer Glo) after cytokine pre-treatment: pre-treatment with the cytokines during 2 weeks
Protocol: Isolation, culture and genetic manipulation of pancreatic organoids. To isolate untransformed ductal organoids for the transplantable PDAC tumorigenesis model, normal pancreas from LSL-KrasG12D mice (pure Bl/6N background) minced and digested with 0.012% collagenase XI (C9407, Sigma-Aldrich) and 0.012% Dispase (17105041, Life Technologies) in HBSS with Mg^2+ and Ca^2+ (14025076, Thermo Fisher Scientific) at 37° C. for a maximum of 30 mins. The material was further digested with TrypLE (GIBCO) for 5 min at 37° C., washed twice with DMEM/F12 (Life Technologies) supplemented with 2 mM glutamine and penn-strep, embedded in growth factor reduced matrigel (Corning), and cultured in complete medium, as described in Boj et al 2014. For activation of mutant Kras, organoids haroburing the LSL-KrasG12D allele were transduced with Ad-mCherry-Cre (Vector Biolabs), and Cherry^+ cells were sorted from single cell organoid suspension by flow cytometry 36h thereafter. Resulting clones were assessed for LSL-KrasG12D recombination by genotyping PCR in genomic DNA using the following primers: 5′ gtc ttt ccc cag cac agt gc 3′ (SEQ ID NO: 19), 5′ ctc ttg cct acg cca cca get c 3′ (SEQ ID NO: 20), and 5′ agc tag cca cca tgg ctt gag taa gtc tgc a 3′ (SEQ ID NO: 21). Validated Cre-recombined clones were then subjected to CRISPR-based inactivation of Trp53 using the PX458 vector (Addgene #48138) and gRNA […] sequence (SEQ ID NO: 22). PX458-sgTrp53 was transduced into organoids by transient transfection using the spinoculation method previously described (O'Rourke et al., 2017), with the modification of using the Effectene transfection reagent (Qiagen). PX458-sgTrp53 introduced cells were sorted by GFP positivity with flow cytometry 36h post-transfection. p53 null status of targeted clones was validated by western blot, using anti-p53 antibody (CMS, Leica Microsystem) and anti-β-actin-peroxidase antibody (Sigma-Aldrich) as normalization control.
This activation was specific (i.e. not observed for many other cytokine receptors, nor during normal pancreas regeneration) and is associated with the emergence of multiple de novo ATAC peaks (FIG. 14B). Preliminary gain-of-function experiments in mutant Kras pancreatic organoids indicate that these druggable Th2 cytokine receptors are functional and modulate organoid growth in vitro (FIG. 14C).

[2] = tested on: Kras mutant (KC-GEMM) mice; assay: Recombinant Il-33 treatment of Kras mutant (KC-GEMM) mice; type: in vivo, mouse; details: for expression of cell fate / PanIN markers (Agr2, Muc6, Dclk1, Cpa1, Sox9) in mKate2+ pancreatic epithelial cells: KC mice, qRT-PCR, 21 days after treatment; for mutant KRAS-driven tumorigenesis / mucinous PanIN lesions (H&E, Alcian Blue, mKate2) / expansion of Dclk1+ cancer stem cells (Dclk1 immunofluorescence): KC-GEMM mice, 5 consecutive days; for mutant KRAS-driven tumorigenesis / mucinous PanIN lesions (H&E, Alcian Blue, mKate2): 1 ug/mouse i.p. once daily, analyzed 21 days thereafter, vs vehicle (PBS); for expansion of Dclk1+ cancer stem cells (Dclk1 immunofluorescence): 1 ug/mouse, day 21 post-treatment
Protocol: (§1) To compare the effects of tissue injury in the transcriptional and chromatin accessibility landscapes of mutant Kras-expressing or Kras wild-type pancreatic epithelial cells, KC;RIK (p48-Cre;RIK;LSLKrasG12D) or C;RIK (p48-Cre;RIK) male mice were treated with 8 hourly intraperitoneal injections of 80 μg/kg caerulein (Bachem) or PBS for 2 consecutive days, using littermates when possible. To characterize invasive disease, pancreatic ductal adenocarcinoma (PDAC) cells were isolated from cancer lesions arising in autochthonous transgenic models (KPflC;RIK (p48Cre;RIK;LSL-KrasG12D;p53fl/^+) that were macro-dissected away from pre-malignant tissue. As an orthogonal approach, C57Bl/6 female mice (Harlan) were subjected to for orthotopic transplantations with syngeneic ductal organoids harboruing mutant Kras and inactivated Trp53 gene (see below). Prior to transplantation, organoid cultures were dissociated with TrypLE (Gibco) after mechanical dissociation by pipetting and 1-2×10^5 cells in serum-free advanced DMEM/F12 (Life Technologies) supplemented with 2 mM glutamine and penn-strep were mixed 1:1 with growth factor reduced matrigel (Corning) and injected into the exposed pancreas of 8-10 weeks old C57B16/N mice using a Hamilton syringe fitted with a 26 gauge needle. For treatment with recombinant Il-33, 5 weeks-old C or KC mice were injected intraperitoneally once daily doses with 1 ug of murine recombinant Il-33 (#580504, R&D Systems) or vehicle (PBS) for 5 consecutive days.
Immunofluorescence, immunohistochemistry and histological analyses. Tissues were fixed overnight in 10% neutral buffered formalin (Richard-Allan Scientific), embedded in paraffin and cut into 5 μm sections. Slides were heated for 30 min at 55° C., deparaffinized, rehydrated with an alcohol series and subjected to antigen retrieval with citrate buffer (Vector Laboratories Unmasking Solution, H-3300) for 25 min in a pressure cooker set on high. Sections were treated with 3% H2O2 for 10 min followed by a wash in dionized water (for immunohistochemistry only), washed in PBS, then blocked in PBS/0.1% Triton X-100 containing 1% BSA. Primary antibodies were incubated overnight at 4° C. in blocking buffer. The following primary antibodies were used: mKate2 (Evrogen, AB233), GFP (ab13970, Abcam and 2956S, Cell Signaling Technology), Brd4 (HPA015055, Sigma-Aldrich), Myc (ab32072, Abcam), Cpa1 (R&D, AF2765), Clusterin (SCBT sc-6419), SOX9 (Millipore AB553), Amylase (sc-31869, Santa Cruz), Krt19 (Troma III, Developmental Studies Hybridoma Bank) and Il-33 (AF3626, R&D). For mKate2, GFP and cMyc immunohistochemistry, Vector ImmPress HRP kits and ImmPact DAB (Vector Laboratories) were used for secondary detection. Tissues were then counterstained with Haematoxylin or when indicated Alcian blue (pH 2.5) and 0.1% Nuclear Fast Red Solution, dehydrated and mounted with Permount (Fisher). The immunohistochemistry detection of Brd4 was performed at the Molecular Cytology Core Facility of Memorial Sloan Kettering Cancer Center using Discovery XT processor (Ventana Medical Systems-Roche). The tissue sections were blocked for 30 min in 10% normal goat serum, 2% BSA in PBS. A rabbit polyclonal anti-Brd4 antibody (HPA015055, Sigma-Aldrich) was used in 1 ug/ml (1:100) concentrations. The incubation with the primary antibody was done for 6 hours, followed by 60 minutes incubation with biotinylated goat anti-rabbit IgG (PK610, Vector labs) in 5.75 ug/mL concentration. Blocker D, Streptavidin-HRP and DAB detection kit (760-124, Ventana Medical Systems-Roche) were used according to the manufacturer instructions. Slides were counterstained with Hematoxylin (760-2021, Ventana), Bluing Reagent (760-2037, Ventana) and coverslipped with Permount (Fisher Scientific). […]

[3] = tested on: Kras-wild type (C-GEMM) mice; assay: Recombinant Il-33 treatment of Kras wild-type (C-GEMM) mice; type: in vivo, mouse; details: 21 days after treatment; for pancreas histology (H&E, Alcian Blue): same dosing
Protocol: as §1
Immunofluorescence, immunohistochemistry and histological analyses. Tissues were fixed overnight in 10% neutral buffered formalin (Richard-Allan Scientific), embedded in paraffin and cut into 5 μm sections. Slides were heated for 30 min at 55° C., deparaffinized, rehydrated with an alcohol series and subjected to antigen retrieval with citrate buffer (Vector Laboratories Unmasking Solution, H-3300) for 25 min in a pressure cooker set on high. Sections were treated with 3% H2O2 for 10 min followed by a wash in dionized water (for immunohistochemistry only), washed in PBS, then blocked in PBS/0.1% Triton X-100 containing 1% BSA. Primary antibodies were incubated overnight at 4° C. in blocking buffer. The following primary antibodies were used: mKate2 (Evrogen, AB233), GFP (ab13970, Abcam and 2956S, Cell Signaling Technology), Brd4 (HPA015055, Sigma-Aldrich), Myc (ab32072, Abcam), Cpa1 (R&D, AF2765), Clusterin (SCBT sc-6419), SOX9 (Millipore AB553), Amylase (sc-31869, Santa Cruz), Krt19 (Troma III, Developmental Studies Hybridoma Bank) and Il-33 (AF3626, R&D). For mKate2, GFP and cMyc immunohistochemistry, Vector ImmPress HRP kits and ImmPact DAB (Vector Laboratories) were used for secondary detection. […]

Molecule: IL-13: recombinant IL-13 cytokine
- proliferation (Cell Titer Glo) [1]: pro-proliferative effects
- proliferation (Cell Titer Glo) after cytokine pre-treatment [1]: further enhanced

B1: rIl-33: murine recombinant Il-33 (#580504, R&D Systems) (protein, UniProt Q8BVZ5 1-266, looked up)
Interleukin-33: MRPRMKYSNSKISPAKFSSTAGEALVPPCKIRRSQQKTKEFCHVYCMRLRSGLTIRKETSYFRKEPTKRYSLKSGTKHEENFSAYPRDSRKRSLLGSIQAFAASVDTLSIQGTSLLTQSPASLSTYNDQSVSFVLENGCYVINVDDSGKDQEQDQVLLRYYESPCPASQSGDGVDGKKLMVNMSPIKDTDIWLHANDKDYSVELQRGDVSPPEQAFFVLHKKSSDFVSFECKNLPGTYIGVKDNQLALVEEKDESCNNIMFKLSKI
- expression of cell fate / PanIN markers (Agr2, Muc6, Dclk1, Cpa1, Sox9) in mKate2+ pancreatic epithelial cells [2]: selective effects
- expression of cell fate / PanIN markers (Agr2, Muc6, Dclk1, Cpa1, Sox9) in mKate2+ pancreatic epithelial cells ([2]; listed as recombinant IL-33): accelerates mutant KRAS-driven tumorigenesis
- mutant KRAS-driven tumorigenesis / mucinous PanIN lesions (H&E, Alcian Blue, mKate2) [2]: sufficient to trigger many of the tumor-promoting outputs of injury in the mutant Kras setting; also recorded: accelerated ADR with development of mucinous lesions
- mutant KRAS-driven tumorigenesis / mucinous PanIN lesions (H&E, Alcian Blue, mKate2) ([2]; listed as recombinant IL-33): promoted tumorigenesis; also recorded: accelerates mutant KRAS-driven tumorigenesis; also recorded: enhanced tumorigenesis
- expansion of Dclk1+ cancer stem cells (Dclk1 immunofluorescence) ([2]; listed as Recombinant IL-33): sufficient to drive expansion of Dclk1^+ cancer stem cells in vivo
- expansion of Dclk1+ cancer stem cells (Dclk1 immunofluorescence) ([2]; listed as recombinant IL-33): cancer stem cell expansion
- expression of cell fate / PanIN markers in mKate2+ pancreatic epithelial cells [3]: no detectable effects
- expression of cell fate / PanIN markers in mKate2+ pancreatic epithelial cells ([3]; listed as recombinant IL-33): no effect
- pancreas histology (H&E, Alcian Blue) [3]: no detectable effects; also recorded: retain normal architecture
- pancreas histology (H&E, Alcian Blue) ([3]; listed as recombinant IL-33): no effect

B2: recombinant IL-4: recombinant IL-4 cytokine (protein, UniProt P05112 25-153, looked up)
Interleukin-4: HKCDITLQEIIKTLNSLTEQKTLCTELTVTDIFAASKNTTEKETFCRAATVLRQFYSHHEKDTRCLGATAQQFHRHKQLIRFLKRLDRNLWGLAGLNSCPVKEANQSTLENFLERLKTIMREKYSKCSS
- proliferation (Cell Titer Glo) [1]: pro-proliferative effects
- proliferation (Cell Titer Glo) after cytokine pre-treatment [1]: further enhanced
